Target: 5T4 antigen on the cell surface (A431 cells and 5T4 over-expressing recombinant MDA-MB-231 cells) (human) (UniProt Q13641)
Experiment: flow cytometry (MFI) on 5T4-expressing cells, anti-Fc FITC detection

5T4 antigen on the cell surface (A431 cells and 5T4 over-expressing recombinant MDA-MB-231 cells) (human), sequence (Q13641 32-420): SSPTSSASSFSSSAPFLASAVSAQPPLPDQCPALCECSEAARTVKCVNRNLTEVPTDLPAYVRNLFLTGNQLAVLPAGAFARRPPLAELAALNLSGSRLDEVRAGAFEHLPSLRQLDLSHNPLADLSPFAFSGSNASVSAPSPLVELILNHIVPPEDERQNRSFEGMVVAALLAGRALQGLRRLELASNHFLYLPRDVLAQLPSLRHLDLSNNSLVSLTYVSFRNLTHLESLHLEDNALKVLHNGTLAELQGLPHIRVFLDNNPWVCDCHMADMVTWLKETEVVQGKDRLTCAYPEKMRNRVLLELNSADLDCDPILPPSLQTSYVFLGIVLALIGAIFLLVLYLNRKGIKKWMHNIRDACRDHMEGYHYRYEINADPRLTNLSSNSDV

fold less binding than the anti-5T4 scFvFc molecules: 200 fold less
Substance: non-binding scFvFc fusion protein

— patent publication US11434278
